In publication PMC12121223:

Target: extracellular region of FGFR1 fused to the Fc fragment of human IgG1 (UniProt P11362)
UniProt P11362, sequence (P11362 22-376): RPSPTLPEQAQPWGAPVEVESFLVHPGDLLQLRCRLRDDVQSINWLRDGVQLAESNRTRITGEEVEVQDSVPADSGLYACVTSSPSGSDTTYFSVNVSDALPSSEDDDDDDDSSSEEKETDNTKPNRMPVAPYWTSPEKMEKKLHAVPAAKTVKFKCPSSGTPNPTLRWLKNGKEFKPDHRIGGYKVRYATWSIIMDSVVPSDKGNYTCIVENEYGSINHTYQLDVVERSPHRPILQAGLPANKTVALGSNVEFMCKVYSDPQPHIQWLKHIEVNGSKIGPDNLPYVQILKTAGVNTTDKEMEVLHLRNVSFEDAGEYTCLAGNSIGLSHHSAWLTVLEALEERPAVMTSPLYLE

cellular uptake of fluorescently labelled FGF1WT into U2OS-R1 cells in the presence of heparin, quantitative confocal microscopy (normalized RSI): 25.2%
Substance: truncated wild-type FGF1 (Met-Ala-FGF1 21-154) (ligand)
